According to article PMC4595432:

Molecular target: DnaA fused to the N-terminal domain of the phage 434 repressor (pcI434-dnaA) (E. coli K12) (UniProt P03004)
Assay: two-hybrid; bacterial two-hybrid system in E. coli R721 (434-P22 chimeric operator upstream of lacZ); fusions to the N-terminal domains of the 434 and P22 repressors; β-galactosidase in Miller units, cultures at A600 0.5 in LB with 0.1 mM IPTG; an interaction lowers the activity and is scored positive when the ratio to R721 is below 0.5

Which ratio β-galactosidase activity tested strain/R721 does the source give for “HtpG fused to the N-terminal domain of the phage P22 repressor (pcIP22-htpG) (from UniProt P0A6Z3 1-624) (natural protein)” here?
The ratio β-galactosidase activity tested strain/R721 was 0.19.

And the β-galactosidase activity?
Its β-galactosidase activity is 1070 Miller units.
